± gives the standard error. Fewer inactive variants are shown than the library holds.
B1: glmS ribozyme (parent)
chain: AUAAAAGCGCCAGAACUACAGAAAUGUAGUUGACGAGGAGGAGGUUUAUCGAAUUUUCGGCGGAUGCCUCCAAA

Variants of: B1
Experiment: self-cleavage kobs at 10000 uM GlcN6P; higher = faster cleavage; RNA array
Settings: with glucosamine-6-phosphate
How it was run: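 Barcoded ribozyme variants were transcribed in situ on sequenced MiSeq chips by E. coli RNA polymerase. At 37 °C, a hybridised Cy3 probe tracked them while glucosamine-6-phosphate (40 μM to 10 mM) in HEPES/KCl/Mg(OAc)2 buffer flowed in and tiles were imaged over ~14 h. Per-tile medians of signals normalised to baseline and to non-cleaving reference variants were fit to one- or two-exponential decays, giving kobs. kcat and KM came from weighted Michaelis–Menten fits across concentrations.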
With AUAAAAGCGCCAGAACUACAGACAUGUAGUUGACGAGGAGGAGGUUUAUCGAAUUUUCGGCGGAUGCCUCAAAA the “self-cleavage kobs at 10000 uM GlcN6P” value was 0.00399 ± 0.00084 s⁻¹. AUAAAAGCGCAAGAAAUACAGAAAUGUAGUUGACGAGGAGGAGGUUUAUCGAAUUUUCGGCGGAUCCCUGCAAA was tested, and the “self-cleavage kobs at 10000 uM GlcN6P” value was 6.24e-05 ± 2.5e-05 s⁻¹. For AUAAAAGCGCCAGAACUACAGAAAUGUAGUUGACGAGGGGGAGGUUUAUCGAAUUUUCGGCGGAUGAAUCCAAA, the “self-cleavage kobs at 10000 uM GlcN6P” value was 6.69e-05 ± 1.7e-05 s⁻¹. For AUAAAAGCGCCAGAACUACAGAAAUGUAUUUGACGAGGAGGAGGUUUAUCGAAUCUACGGCGGAUGCCUCCAAA, the “self-cleavage kobs at 10000 uM GlcN6P” value was 4.36e-05 ± 1.5e-05 s⁻¹. With AUAAAAGCGCCAGAUCUACAGAAAUGUAGUUGACGAGGAGGAACGUUAUCGAAUUUUCGGCGGAUGCCUCCAAA the “self-cleavage kobs at 10000 uM GlcN6P” value was under 1e-05 s⁻¹. With AUAAAAGCGCCAUCACUACAGAAAUGUAGUUGACGAGGAGGAGGUUUAUCGAAUUUUGGGCGGAUGCCUCCAAA the “self-cleavage kobs at 10000 uM GlcN6P” value was 7.6e-05 ± 1.7e-05 s⁻¹. In the case of AUAAAAGCGCCAGAACUACAGAAAUGUAGUUGACGAGGUGGAGGUUUAGCGAAGUUUCGGCGGAUGCCUCCAAA, the “self-cleavage kobs at 10000 uM GlcN6P” value is reported as 0.00053 ± 0.00012 s⁻¹. In the case of AUAAAAGCGGCAGAACUACAGAAAUGUAGUUGACGAAGAGGAGGUUUAUCGAAUUUUCGUCGGAUGCCUCCAAA, the “self-cleavage kobs at 10000 uM GlcN6P” value is reported as under 1e-05 s⁻¹. In the case of AUAAAAGCGCCAGAACUACAGAAAUGUAGUUGUCGAGGAGGAGGUUUAUCGAAUUUUGGGCGGAUGUAUCCAAA, the “self-cleavage kobs at 10000 uM GlcN6P” value is reported as 5.11e-05 ± 1.6e-05 s⁻¹. With AUAAAAGCGCCUGAACUACAGAAAUGUAGUUGACGAGGAGGAGUUUUAUCAAAUUUUCGGCGGAUGCCUCCAAA the “self-cleavage kobs at 10000 uM GlcN6P” value was under 1e-05 s⁻¹. AUAAAAGCGCCUGAUCUACAGAAAUGUAGUUGACGAGGAGGAGGUUUAUCGAAUUUGCGGCGGAUGCCUCCAAA was tested, and the “self-cleavage kobs at 10000 uM GlcN6P” value was 3.38e-05 ± 1.4e-05 s⁻¹. In the case of AUAAAAGCGCCAUAACUACAGAAAUGUAGUUGACGAAGAGGAGGUUUAUUGAAUUUUCGGCGGAUGCCACCAAA, the “self-cleavage kobs at 10000 uM GlcN6P” value is reported as under 1e-05 s⁻¹. In the case of AUAAAAGCGCCAGAACUACAGAAAUGUAGUGGACGAGGAGGAGGUUUAUCGAAUUUUUGGCGGAUGCCUCCAAA, the “self-cleavage kobs at 10000 uM GlcN6P” value is reported as 9.69e-05 ± 1.1e-05 s⁻¹. With AUAAAAGCGCCAGAACUACAGAAAUGUAAUAGACGAGGAGGAGGGUUAUCGAAUUUUCGGCGGAUGCCUCCAAA the “self-cleavage kobs at 10000 uM GlcN6P” value was 0.000217 ± 4.5e-05 s⁻¹. For AUAAAAGCGCCAGAACUACAGAAAUGUACUUAACGAGGAGGAGGUUUAUCGAAAUUUCGGCGGAUGCCUCCAAA, the “self-cleavage kobs at 10000 uM GlcN6P” value was 0.000923 ± 0.00011 s⁻¹. AUAAAAGCGCCAGAAAUACAGAAAUGUAGUUGACGCGGAGGAGGUUUAUCGAAUUUACGGUGGAUGUCUCCAAA was tested, and the “self-cleavage kobs at 10000 uM GlcN6P” value was under 1e-05 s⁻¹. For AUAAAAGCGCCAGAACUACAGAAAUGUAGUUGACGGGGAGGCGGUUUAUCGAAUUUUCUGCGGAUGCCUCCAAA, the “self-cleavage kobs at 10000 uM GlcN6P” value was under 1e-05 s⁻¹. With AUAAAAGCGCCAGAACUACAGAAAUGUAGUUGACGAGGAGGAUGUUUAUCGAAUGUUCGGCGGAUGCCUCCAAA the “self-cleavage kobs at 10000 uM GlcN6P” value was 3.47e-05 ± 1.3e-05 s⁻¹. For AUAAAAGCGCCAGAAUUACAGAAAUGUAGUUGACGAGGAGGAGGUCUAUCGAAUUUUGGGGGGAUGCCUCCAAA, the “self-cleavage kobs at 10000 uM GlcN6P” value was 5.92e-05 ± 2.1e-05 s⁻¹. AUAAAAGCGCCAGAACUACAGAAAUUUAGUUGACGAGGAGGAGUUUUAUCGAAUUUUCGGCGGAUGCCUCCAAA was tested, and the “self-cleavage kobs at 10000 uM GlcN6P” value was 0.000189 ± 3.6e-05 s⁻¹. With AUAAAAGCGCAAGAACUACAGAAAUGUAGCUGACGAGGCGGAGGUUUAUCGAAUUUUCUGCGGAUGCCUCCAAA the “self-cleavage kobs at 10000 uM GlcN6P” value was 0.000272 ± 6.2e-05 s⁻¹. AUAAAAGUGCCAGAACUACAGAAAUGUAGUUGACGAGGAGGAGGUUUAUCGAAUUUUGGGCGGAUGCCGCCAAA was tested, and the “self-cleavage kobs at 10000 uM GlcN6P” value was 0.000536 ± 0.00016 s⁻¹. For AUAAAAGCGCCAGAACUACAGAAAUGUAGUUGAAAAGGAUCAGGUGUAUCGAAUUUUCGGCGGAUGCCUCCAAA, the “self-cleavage kobs at 10000 uM GlcN6P” value was under 1e-05 s⁻¹. AUAAAAGCGCCAGAACUACAGAAAUGUAGUUGACGAGGAGGAGGUUGAUCGAAUUUUCGGCGGAUCCCUCCAAA was tested, and the “self-cleavage kobs at 10000 uM GlcN6P” value was 0.000614 ± 0.00011 s⁻¹. With AUAAAAGCGCCAGAACUACAGAAAUGUAGUUGACGAGGAGGAGGUUUAUCGGAUUUUCGGCGGAGGCCUCGAAA the “self-cleavage kobs at 10000 uM GlcN6P” value was 2.3e-05 ± 1.1e-05 s⁻¹. AUAAAAGCGCCAGAACUACAGAAAUGUAGUGGACGAGGAGGAGGUUUAUCGAAUGUUUGGCGGAUGCCUCCAAA was tested, and the “self-cleavage kobs at 10000 uM GlcN6P” value was 7.92e-05 ± 1.7e-05 s⁻¹. In the case of AUAAAAGAGCCAGAACUACAGAAAUGUAGUUGACGAGGACGAGGUUUAUCGAAUUUUCAGCGAAUGCCUCCAAA, the “self-cleavage kobs at 10000 uM GlcN6P” value is reported as under 1e-05 s⁻¹. AUAAAAGCGCUAGAACUACAGAAAUGUAGUUGACGAGGAGGAGGUUUAUCGAAUUUUCGGCGGAUUCCUCGAAA was tested, and the “self-cleavage kobs at 10000 uM GlcN6P” value was under 1e-05 s⁻¹. AUAAAAGCGCCAGAUCUACAGAAAUGUAGUUGACGAGGAGGAGGUUUAUAGAAUUUUCGGCGGAUGUCUCCAAA was tested, and the “self-cleavage kobs at 10000 uM GlcN6P” value was under 1e-05 s⁻¹. For AUAAAAGCGCCAGAACUACAGAAAUGUAGUUGACGAAGAGGAUGUUUAUCGAAUGUUCGGCGGAUGCGUCCAAA, the “self-cleavage kobs at 10000 uM GlcN6P” value was 0.000281 ± 7.9e-05 s⁻¹. In the case of AUAAAAGCGCCAGAAUUACAGAAAUGUAGUUGGCGCGGAGGAGGUUUAUCGAAUUUGGGGCGGAUGCCUCCAAA, the “self-cleavage kobs at 10000 uM GlcN6P” value is reported as 7.07e-05 ± 2e-05 s⁻¹. AUAAAAGCGCCAGAACUACAGAAAUGUAGUUGACGAGGAGUAGGUUUAUCGAGUUUUCGGCGGAUGCCUCAAAA was tested, and the “self-cleavage kobs at 10000 uM GlcN6P” value was 0.000206 ± 4.7e-05 s⁻¹. In the case of AUAAAUGCGCCAGAACUACAGAAAUGUAGUUGACGUGGAGGCGGUUUAUCGAAUUUUCGGCGGACGCCUCCAAA, the “self-cleavage kobs at 10000 uM GlcN6P” value is reported as under 1e-05 s⁻¹. AUAAAAGCGCCAGAACUACAGAAAUGUAGUUGACGAGGCGGAGAUUUAUCGAAUUUUCCGCGGAUGCCUCCAAA was tested, and the “self-cleavage kobs at 10000 uM GlcN6P” value was under 1e-05 s⁻¹. AUAAAAGCGCCAGAACUACAGAAAUGUAGUUGACGAGGAGGAGGUAUAUCGAAUUUUCGGCGGAUGCAUCAAAA was tested, and the “self-cleavage kobs at 10000 uM GlcN6P” value was under 1e-05 s⁻¹. For AUAAAAGCGCCAGCACUACAGAAAUGUAGUUGACGAGGAGGAGGUUUAUCGAAUUUUUGGCGGAUGCCUCCAAA, the “self-cleavage kobs at 10000 uM GlcN6P” value was 8.12e-05 ± 1.2e-05 s⁻¹. AUAAAAGCGCCAGAGCUACAGAAAUGUACUUGACGAGGAGGAGCUUUAUCGAAUUUUCGGCGGAUGCCUCCAAA was tested, and the “self-cleavage kobs at 10000 uM GlcN6P” value was under 1e-05 s⁻¹.

— the supplement of paper PMC7125110
